Target: the molecule itself
Experiment: cryo-EM structure

B1: untagged G3BP2 NTF2L domain (amino acids 1-139) (domain or fragment)
chain: MVMEKPSPLLVGREFVRQYYTLLNKAPEYLHRFYGRNSSYVHGGVDASGKPQEAVYGQNDIHHKVLSLNFSECHTKIRHVDAHATLSDGVVVQVMGLLSNSGQPERKFMQTFVLAPEGSVPNKFYVHNDMFRYEDEVFG
- stoichiometry N: 2
